Substrate in data set [1]: C[S+](CC[C@H](N)C(=O)[O-])C[C@H]1O[C@@H](n2cnc3c(N)ncnc32)[C@H](O)[C@@H]1O
Kind of data set: KM determination by method of initial rates, PNMT. In kind it is biochemical, human. Conditions: other: PNMT; norepinephrine 100 μM; pH 8.0.

Substrate in data set [2]: NC[C@H](O)c1ccc(O)c(O)c1
Kind of data set: KM determination by method of initial rates, PNMT. The conditions noted are these: other: PNMT; SAM 100 μM; fit to substrate inhibition model; pH 8.0. The class given is biochemical, human.

Substrate in data set [3]: NCCc1c[nH]cn1
As to the kind of experiment: purified protein, by the assay type. Conditions: other: HNMT; SAM 100 μM; MTase-Glo readout; pH 8.0.

Substrate in data set [4]: C[S+](CC[C@H](N)C(=O)[O-])C[C@H]1O[C@@H](n2cnc3c(N)ncnc32)[C@H](O)[C@@H]1O
As to the kind of experiment: KM determination by method of initial rates, HNMT. In kind it is biochemical, human. The conditions noted are these: other: HNMT; substrate 100 μM; MTase-Glo readout; pH 8.0.

Substrate in data set [5]: C[S+](CC[C@H](N)C(=O)[O-])C[C@H]1O[C@@H](n2cnc3c(N)ncnc32)[C@H](O)[C@@H]1O
As to the kind of experiment: KM determination by method of initial rates, COMT. The class given is biochemical, human. Conditions: other: COMT; substrate 100 μM; MTase-Glo readout; pH 8.0.

Substrate in data set [6]: NC[C@H](O)c1ccc(O)c(O)c1
Kind of data set: KM determination by method of initial rates, COMT. Conditions: other: COMT; SAM 100 μM; MTase-Glo readout; pH 8.0. In kind it is biochemical, human.

Substrate in data set [7]: NC(=O)c1cccnc1
As to the kind of experiment: purified protein, by the assay type. The conditions noted are these: other: NNMT; SAM 100 μM; MTase-Glo readout; pH 8.0.

Substrate in data set [8]: C[S+](CC[C@H](N)C(=O)[O-])C[C@H]1O[C@@H](n2cnc3c(N)ncnc32)[C@H](O)[C@@H]1O
Kind of data set: KM determination by method of initial rates, NNMT. In kind it is biochemical, human. Conditions: other: NNMT; substrate 100 μM; MTase-Glo readout; pH 8.0.

Substrate in data set [9]: C[S+](CC[C@H](N)C(=O)[O-])C[C@H]1O[C@@H](n2cnc3c(N)ncnc32)[C@H](O)[C@@H]1O
As to the kind of experiment: KM determination by method of initial rates, GNMT. The class given is biochemical, human. The conditions noted are these: other: GNMT; substrate 100 μM; MTase-Glo readout; pH 8.0.

This passage reports Km results from PMC10983791.

B1: PNMT (Homo sapiens) (protein)
chain: MSGADRSPNAGAAPDSAPGQAAVASAYQRFEPRAYLRNNYAPPRGDLCNPNGVGPWKLRCLAQTFATGEVSGRTLIDIGSGPTVYQLLSACSHFEDITMTDFLEVNRQELGRWLQEEPGAFNWSMYSQHACLIEGKGECWQDKERQLRARVKRVLPIDVHQPQPLGAGSPAPLPADALVSAFCLEAVSPDLASFQRALDHITTLLRPGGHLLLIGALEESWYLAGEARLTVVPVSEEEVREALVRSGYKVRDLRTYIMPAHLQTGVDDVKGVFFAWAQKVGL
Broadly, the Km is the concentration of substrate that gives half-maximal velocity. In the case of B1, the Michaelis constant (Km) in data set [1] is 3.6 ± 0.6 µM; in data set [2], 16.2 ± 4.3 µM.

B2: HNMT (Homo sapiens) (protein)
chain: MASSMRSLFSDHGKYVESFRRFLNHSTEHQCMQEFMDKKLPGIIGRIGDTKSEIKILSIGGGAGEIDLQILSKVQAQYPGVCINNEVVEPSAEQIAKYKELVAKTSNLENVKFAWHKETSSEYQSRMLEKKELQKWDFIHMIQMLYYVKDIPATLKFFHSLLGTNAKMLIIVVSGSSGWDKLWKKYGSRFPQDDLCQYITSDDLTQMLDNLGLKYECYDLLSTMDISDCFIDGNENGDLLWDFLTETCNFNATAPPDLRAELGKDLQEPEFSAKKEGKVLFNNTLSFIVIEA
Consider B2, for which the Michaelis-Menten constant (Km) turned out to be 5.3 ± 2.1 µM in data set [3] and 9.3 ± 2.1 µM in data set [4].

B3: COMT (Homo sapiens) (protein)
chain: MPEAPPLLLAAVLLGLVLLVVLLLLLRHWGWGLCLIGWNEFILQPIHNLLMGDTKEQRILNHVLQHAEPGNAQSVLEAIDTYCEQKEWAMNVGDKKGKIVDAVIQEHQPSVLLELGAYCGYSAVRMARLLSPGARLITIEINPDCAAITQRMVDFAGVKDKVTLVVGASQDIIPQLKKKYDVDTLDMVFLDHWKDRYLPDTLLLEECGLLRKGTVLLADNVICPGAPDFLAHVRGSSCFECTHYQSFLEYREVVDGLEKAIYKGPGSEAGP
Take B3: the Km in data set [5] amounted to 14.5 ± 1.8 µM; in [6] it was 13.7 ± 2.2 µM.

B4: NNMT (Homo sapiens) (protein)
chain: MESGFTSKDTYLSHFNPRDYLEKYYKFGSRHSAESQILKHLLKNLFKIFCLDGVKGDLLIDIGSGPTIYQLLSACESFKEIVVTDYSDQNLQELEKWLKKEPEAFDWSPVVTYVCDLEGNRVKGPEKEEKLRQAVKQVLKCDVTQSQPLGAVPLPPADCVLSTLCLDAACPDLPTYCRALRNLGSLLKPGGFLVIMDALKSSYYMIGEQKFSSLPLGREAVEAAVKEAGYTIEWFEVISQSYSSTMANNEGLFSLVARKLSRPL
As to B4, the Michaelis-Menten constant (Km) in data set [7] worked out at 3.8 ± 0.5 µM; in data set [8] it was 11.9 ± 5.7 µM.

B5: GNMT (Homo sapiens) (protein)
chain: MVDSVYRTRSLGVAAEGLPDQYADGEAARVWQLYIGDTRSRTAEYKAWLLGLLRQHGCQRVLDVACGTGVDSIMLVEEGFSVTSVDASDKMLKYALKERWNRRHEPAFDKWVIEEANWMTLDKDVPQSAEGGFDAVICLGNSFAHLPDCKGDQSEHRLALKNIASMVRAGGLLVIDHRNYDHILSTGCAPPGKNIYYKSDLTKDVTTSVLIVNNKAHMVTLDYTVQVPGAGQDGSPGLSKFRLSYYPHCLASFTELLQAAFGGKCQHSVLGDFKPYKPGQTYIPCYFIHVLKRTD
As to B5, in [9], the Michaelis-Menten constant (Km) was 12.1 ± 3.6 µM.
